Values quoted from earlier work, collected in patent US9504757B2, “Site-specific GLP-2 conjugate using an immunoglobulin fragment” (HANMI SCIENCE CO., LTD., priority 2011, dated 2016).

Conditions: inactivation by DPP IV; Bolette H. et al. 2000

Sequence: HADGSFSDEMNTILDNLAARDFINWLIQTKITD [GLP-2]
- in vivo half-life: ≤ 7 min
